The nature of the data set: amyloid nucleation score (Sup35N fusion, yeast selection) (log enrichment); library NNK3; higher = more nucleation; inactive = no reads after selection. The procedure, abridged: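 For the nucleation score, DiMSum gave the log enrichment of output over input reads, centred on the mode score of non-aggregating sequences. Psi-negative yeast expressing Sup35N fused to peptides of 20 random codons were induced with 100 μM copper sulfate for 24 hours and grown 7 days at 30°C on medium lacking adenine and uracil. Input and output plasmid inserts were Illumina-sequenced, and sequences with under 100 input reads were excluded.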

± gives the uncertainty stated by the source.

As for LACLIHS, the amyloid nucleation score result was “inactive”. Consider ALDMVLYL, for which the amyloid nucleation score entry was “inactive”. Then AEWFAKLLASTMGLIFERRW, with “inactive”; and PHVLVESLW, with “inactive”. Then AAYADR, with 0.008 ± 0.48; and DCSGG, with “inactive”; and QQWWLLFSLC, with “inactive”.

In the case of SLDFIHRNFVARQCIHNKGH, the amyloid nucleation score entry was “inactive”.

Consider NFATRDNWYRVTQTLEDWIK, for which the amyloid nucleation score result was “inactive”. As to CSLCYETGSICVVSRGEDGL, the amyloid nucleation score result is “inactive”. Then RLYLESVYYFLSRAHRLSID, with “inactive”; and PKQSIDCCHNWGDGNCFIVV, with “inactive”. Then HVLKDARCDS, with 0.181 ± 0.36; and HWSFQTVIDYGHPKFF, with 1.45 ± 0.15. Then PKIAGFSGGTCTVA, with “inactive”; and FVVRIKYTGSDLRLFRMVSF, with “inactive”. As for KEDKPESTDYNVNT, the amyloid nucleation score result was “inactive”. With VNVMWKPLGLHIVPMFAFGK, the amyloid nucleation score came out at 1.13 ± 0.16. Then RFYNDW, with “inactive”. Turning to EVVKLVR, the amyloid nucleation score entry is “inactive”.

As to LSSTV, the amyloid nucleation score entry is “inactive”. Then ALNFPYSSRVFYFKDSAHAF, with “inactive”; and NSNCYPLVI, with “inactive”. On to LQLWVSFSSVKLCYCISHSF, for which the amyloid nucleation score entry is “inactive”. Then MGQFVRYLMADSCL, with “inactive”. Then GILCVEMSVTSLGLIIETYF, with “inactive”. Then SQYHQASNAMWVLFSGI, with “inactive”. As to DGLSLPPMMVNRVQTATQSR, the amyloid nucleation score entry was “inactive”. Consider IEVQFENFSCSR, for which the amyloid nucleation score result is “inactive”. For VHREVGLDFYDNVTCTMFHI, the amyloid nucleation score result was “inactive”. Take FVQSGLFFMCDGSCGLLRVF: the amyloid nucleation score result was “inactive”.

Turning to ISILEVKMWLLWTELERTIT, the amyloid nucleation score result is “inactive”. Then MCPHKGIRSISLMIG, with “inactive”; and YRRYPVIR, with “inactive”. Turning to LTVRKSY, the amyloid nucleation score result was “inactive”. In the case of LYRVVYFDALKNCGYVVSFW, the amyloid nucleation score entry was “inactive”. With ALGIICVGLAFDGSLDLTS, the amyloid nucleation score was 1.25 ± 0.15. Then FLHQGT, with “inactive”. As to FQVLN, the amyloid nucleation score result was “inactive”. In the case of IMSNTLIHYLHRMLSSALCY, the amyloid nucleation score result was “inactive”.

For the substance DDGSKCLLSSMMFVNLVTYC, the amyloid nucleation score result is “inactive”. As for WSVSKCDVLGLNSDVFKLWL, the amyloid nucleation score entry is “inactive”. Then AQAVHAEVVQFILYFGESPL, with 2.47 ± 0.08; and HCCVLSARGWLIGSMRWPHC, with “inactive”; and LYFNWWTRGTAMLYGI, with “inactive”. Then HRVIWSFSFVRSDFCFPYCA, with “inactive”. Then ITALDWY, with “inactive”. For the substance KSYWCNVGAIENT, the amyloid nucleation score entry is “inactive”. Then MVREFTQNSKVCSTVLCDGV, with “inactive”; and ILPGRHCGGASMHTQTCQ, with “inactive”; and LSLREE, with “inactive”. Then NEIQVKQRYVPPVSVSFVWW, with 1.59 ± 0.086. Then NSGDGSGVRFYSDNMDTYMA, with 0.185 ± 0.88; and SRMTIIWVTVRISRNGTWNF, with “inactive”; and YPDNIFFCQSN, with “inactive”. ISNLRSVVLWNSRLQRNRGW: the amyloid nucleation score result is “inactive”. Take YLVMTSLIC: the amyloid nucleation score entry was “inactive”. As for HQISFSM, the amyloid nucleation score entry is “inactive”. Then MNFGYNNSFAIYSVFYSYRC, with 2.69 ± 0.055; and FNMYFCVIWLCDSFLIMCG, with “inactive”; and LDGFSSKILGMFEEAVVYRM, with “inactive”. Then MIDIKCNERAFSEYRFWCRW, with 0.141 ± 0.42. Then KICGNRPGVSRYLVGLDVMC, with “inactive”; and YHSSVCTDVIYGTTYWGCAV, with “inactive”; and ERSVPSGE, with “inactive”. For GYDQKLES, the amyloid nucleation score entry was “inactive”. Then EKYRNGGY, with “inactive”. Then DSSPVPKGYNRVRPLVNLAV, with “inactive”; and QELMEKDGRASKDQAWASIV, with “inactive”; and CWNDSLLCYMSSTMGNVQTT, with “inactive”. Then SLSPDPFEFLLLSLLLRSAV, with “inactive”; and DPGHGS, with “inactive”; and KVSWMFYRCSDNNN, with 1.66 ± 0.074.

With ESIRCFSTYKNGSIRSFRAL, the amyloid nucleation score result is “inactive”. Then GITVMSLTG, with “inactive”; and SPPLYSYRGRYMERYHSKWN, with “inactive”. Then FYICYLNPNQQLFVLN, with 1.27 ± 0.1; and RIVEGMYLYVLS, with “inactive”. Then WKGLL, with “inactive”; and LSSFNDDMNGVTFYPSISLD, with “inactive”; and SNSDVN, with “inactive”. As to LHSFLRCDCSIARF, the amyloid nucleation score result is “inactive”. Then YIMAFCCLLPNPPVSVLMAH, with “inactive”; and RPYGSEVVIFMSVSRKPPPA, with 0.661 ± 0.14; and SAVVMRSQADSFDYLN, with “inactive”. Then YFGVTLLMYERARWASFYRF, with “inactive”.

With SFDILTAVVT, the amyloid nucleation score result is “inactive”. For the substance TNWDKNYYSCYIIKGLRWER, the amyloid nucleation score result was “inactive”. Then SLSNSVWINFARNGLSSLCQ, with “inactive”; and TSYYSMVEHSLKYQDRLMSS, with “inactive”. KQGVILTNRVYAFALGSSTH: the amyloid nucleation score entry is “inactive”. Then YYLGLLTYRWGLRFFYLIVS, with “inactive”.

GTRIFSRDVISSGFQGSICL: the amyloid nucleation score result is “inactive”.

Take MMTTGLLGVLTSCNSMT: the amyloid nucleation score entry is “inactive”. Then FTSYRSEPTIYALLCLGLSL, with 2.08 ± 0.093; and NILRTRSRF, with “inactive”; and IRTNYRRGKEAGVSGADSCS, with “inactive”. FILRDHRLSLSNCAMKCPQG: the amyloid nucleation score entry is “inactive”. Then TKGFDVPT, with “inactive”. Then LGPVIS, with -0.46 ± 1.7; and TMRNKMAY, with “inactive”; and VSLILFGRIFFHL, with “inactive”. Then DFKDCDICTTPNDKVESGKV, with “inactive”; and SVYCCIDKLLHSAKSRLFMM, with “inactive”. On to IESKLDAYTLCVGSSNWLWM, for which the amyloid nucleation score result is “inactive”. Then ISIFSIRNMVYNLQVRLVLE, with “inactive”. Then ACLFCLGDWEGFVSD, with “inactive”; and DRRNNVRFVVLFSRRYCGQA, with “inactive”. Consider LYSCRFMNLKTYLVL, for which the amyloid nucleation score result is “inactive”.

As for LSFHP, the amyloid nucleation score result is “inactive”. PAQSQAYVLKAGGPRLDGRV: the amyloid nucleation score result is “inactive”. Then HSSSLLRLQPVVHYLLLNVD, with “inactive”. Then LARRRSTCDICWLSYKATDL, with “inactive”; and DSYSIILCFHKNKLLVLLSP, with 0.156 ± 0.42; and TMLYGSIRQSGDMQMSTLSV, with “inactive”. For SLNNCGLLWYPSTTPPESLG, the amyloid nucleation score entry was “inactive”. For the substance MIWFVLL, the amyloid nucleation score came to 2.17 ± 0.089. Then TSVSPRHLVSTSTMICSFAH, with “inactive”; and IFFAMISCTYLLDCVDRNWG, with “inactive”; and NPPKDGYMLTWIIYDRKAGT, with “inactive”. Then TVLLLGRWYN, with 1.24 ± 0.14. Then YMYQLKYYASEMNWVYSYSI, with “inactive”. For RSQDNCR, the amyloid nucleation score entry is “inactive”. For YNFGLVNV, the amyloid nucleation score result is “inactive”. Then EGPVSGPC, with “inactive”; and RSFFSWAMNMRGLARWAWME, with 1.78 ± 0.11; and SVWLASCYHLIWVELGRWDI, with “inactive”. KRVLEGRFITVSM: the amyloid nucleation score result was “inactive”. Then LLRGLAIGKKDYIYSLLLLH, with -0.619 ± 1.4. Then FQRFYYLCWPSIWNMFQGGG, with “inactive”; and ILQCGS, with “inactive”; and TWVWGKFFGFLNSDISDVRH, with “inactive”. Take SGLRSTFDNTYTLYY: the amyloid nucleation score result is “inactive”.
